{"source": "ChEMBL document CHEMBL2073889", "about": "“ATP-dependent transport of beta-estradiol 17-(beta-D-glucuronide) in rat canalicular membrane vesicles” (Am J Physiol, 1996)", "proteins": {"B1": {"name": "ATP-binding cassette sub-family C member 2 (Rattus norvegicus) (protein)", "chain": "MDKFCNSTFWDLSLLESPEADLPLCFEQTVLVWIPLGFLWLLAPWQLYSVYRSRTKRSSITKFYLAKQVFVVFLLILAAIDLSLALTEDTGQATVPPVRYTNPILYLCTWLLVLAVQHSRQWCVRKNSWFLSLFWILSVLCGVFQFQTLIRALLKDSKSNMAYSYLFFVSYGFQIVLLILTAFSGPSDSTQTPSVTASFLSSITFSWYDRTVLKGYKHPLTLEDVWDIDEGFKTRSVTSKFEAAMTKDLQKARQAFQRRLQKSQRKPEATLHGLNKKQSQSQDVLVLEEAKKKSEKTTKDYPKSWLIKSLFKTFHVVILKSFILKLIHDLLVFLNPQLLKLLIGFVKSSNSYVWFGYICAILMFAVTLIQSFCLQSYFQHCFVLGMCVRTTVMSSIYKKALTLSNLARKQYTIGETVNLMSVDSQKLMDATNYMQLVWSSVIQITLSIFFLWRELGPSILAGVGVMVLLIPVNGVLATKIRNIQVQNMKNKDKRLKIMNEILSGIKILKYFAWEPSFQEQVQGIRKKELKNLLRFGQLQSLLIFILQITPILVSVVTFSVYVLVDSANVLNAEKAFTSITLFNILRFPLSMLPMVTSSILQASVSVDRLERYLGGDDLDTSAIRRVSNFDKAVKFSEASFTWDPDLEATIQDVNLDIKPGQLVAVVGTVGSGKSSLVSAMLGEMENVHGHITIQGSTAYVPQQSWIQNGTIKDNILFGSEYNEKKYQQVLKACALLPDLEILPGGDMAEIGEKGINLSGGQKQRVSLARAAYQDADIYILDDPLSAVDAHVGKHIFNKVVGPNGLLAGKTRIFVTHGIHFLPQVDEIVVLGKGTILEKGSYRDLLDKKGVFARNWKTFMKHSGPEGEATVNNDSEAEDDDDGLIPTMEEIPEDAASLAMRRENSLRRTLSRSSRSSSRRGKSLKNSLKIKNVNVLKEKEKEVEGQKLIKKEFVETGKVKFSIYLKYLQAVGWWSILFIILFYGLNNVAFIGSNLWLSAWTSDSDNLNGTNNSSSHRDMRIGVFGALGLAQGICLLISTLWSIYACRNASKALHGQLLTNILRAPMRFFDTTPTGRIVNRFSGDISTVDDLLPQTLRSWMMCFFGIAGTLVMICMATPVFAIIIIPLSILYISVQVFYVATSRQLRRLDSVTKSPIYSHFSETVTGLPIIRAFEHQQRFLAWNEKQIDINQKCVFSWITSNRWLAIRLELVGNLVVFCSALLLVIYRKTLTGDVVGFVLSNALNITQTLNWLVRMTSEAETNIVAVERISEYINVENEAPWVTDKRPPADWPRHGEIQFNNYQVRYRPELDLVLKGITCNIKSGEKVGVVGRTGAGKSSLTNCLFRILESAGGQIIIDGIDVASIGLHDLRERLTIIPQDPILFSGSLRMNLDPFNKYSDEEVWRALELAHLRSFVSGLQLGLLSEVTEGGDNLSIGQRQLLCLGRAVLRKSKILVLDEATAAVDLETDSLIQTTIRKEFSQCTVITIAHRLHTIMDSDKIMVLDNGKIVEYGSPEELLSNRGSFYLMAKEAGIENVNHTEL"}}, "substrate": "C[C@]12CC[C@@H]3c4ccc(O)cc4CC[C@H]3[C@@H]1CC[C@@H]2O[C@@H]1O[C@H](C(=O)O)[C@@H](O)[C@H](O)[C@H]1O", "experiment": "TP_TRANSPORTER: uptake in bile canalicular membrane vesicles from SD rat", "type": "functional, cell membranes, Sprague-Dawley, Bile canalicular membrane vesicle"}
{"protein": "B1", "values": [{"measurement": "Km", "value": 75, "unit": "µM"}]}
